# Test results taken from article PMC2132615 (The Journal of Cell Biology, 1997).
# B1: CBF3 p110 (p110^NDC10) (natural protein)
# chain: MRSSILFLLKLMKIMDVQQQQEAMSSEDRFQELVDSLKPRTAHQYKTYYTKYIQWCQLNQIIPTPEDNSVNSVPYKDLPISAELIHWFLLDTLITDDKPGEKREETEDLDEEEENSFKIATLKKIIGSLNFLSKLCKVHENPNANIDTKYLESVTKLHTHWIDSQKAITTNETNNTNTQVLCPPLLKVSLNLWNPETNHLSEKFFKTCSEKLRFLVDFQLRSYLNLSFEERSKIRFGSLKLGKRDRDAIIYHKVTHSAEKKDTPGHHQLLALLPQDCPFICPQTTLAAYLYLRFYGIPSVSKGDGFPNLNADENGSLLQDIPILRGKSLTTYPREETFSNYYTTVFRYCHLPYKRREYFNKCNLVYPTWDEDTFRTFFNEENHGNWLEQPEAFAFPDKIPFDFKKIMNFKSPYTSYSTNAKKDPFPPPKDLLVQIFPEIDEYKRHDYEGLSQNSRDFLDLMEVLRERFLSNLPWIYKFFPNHDIFQDPIFGNSDFQSYFNDKTIHSKGSPILSFDILPGFNKIYKNKTNFYSLLIERPSQLTFASSHNPDTHPTQKQESEGPLQMSQLDTTQLNELLKQQSFEYVQFQTLSNFQILLSVFNKIFEKLEMKKSSRGYILHQLNLFKITLDERIKKSKIDDADKFIRDNQPIKKEENIVNEDGPNTSRRTKRPKQIRLLSIADSSDESSTEDSNVFKKDGESIEDGAYGENEDENDSEMQEQLKSMINELINSKISTFLRDQMDQFELKINALLDKILEEKVTRIIEQKLGSHTGKFSTLKRPQLYMTEEHNVGFDMEVPKKLRTSGKYAETVKDNDDHQAMSTTASPSPEQDQEAKSYTDEQEFMLDKSIDSIEGIILEWFTPNAKYANQCVHSMNKSGNKSWRANCEALYKERKSIVEFYIYLVNHESLDRYKAVDICEKLRDQNEGSFSRLAKFLRKWRHDHQNSFDGLLVYLSN
# Molecular target: the molecule itself
protein,measurement,value
B1,stoichiometry N,2
